Reference: patent US20100130424A1 (Janssen / Centocor, published 2010)
Read-outs that look alike come from different tables or passages of the source. No end group written: not given here.

Assays:
[1] = molecular target: T1, human CRH receptor type 2 (human, UniProt Q13324 1-411); assay: cell-based or functional assay
T1 sequence (looked up): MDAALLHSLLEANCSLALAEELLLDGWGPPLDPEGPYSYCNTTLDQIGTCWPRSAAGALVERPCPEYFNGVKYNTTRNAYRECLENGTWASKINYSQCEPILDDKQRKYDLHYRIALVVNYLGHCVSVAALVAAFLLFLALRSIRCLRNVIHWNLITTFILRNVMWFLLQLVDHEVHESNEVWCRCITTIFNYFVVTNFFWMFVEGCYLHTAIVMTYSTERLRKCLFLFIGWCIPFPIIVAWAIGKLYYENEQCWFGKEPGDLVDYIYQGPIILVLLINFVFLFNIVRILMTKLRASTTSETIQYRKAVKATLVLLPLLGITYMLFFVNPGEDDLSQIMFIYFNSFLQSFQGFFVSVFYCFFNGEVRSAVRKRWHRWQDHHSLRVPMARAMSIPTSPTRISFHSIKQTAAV

[2] = molecular target: T1, human CRH receptor type 2; assay: inferred from the test as antagonist at 10 µM, cAMP assay on h-CRHR2 SK-N-MC cells
[3] = molecular target: T1, human CRH receptor type 2; assay: cell-based or functional assay; remark: listed apart in the source
[4] = molecular target: T2, human CRH receptor type 1 (human, UniProt P34998 24-415); assay: cell-based or functional assay
T2 sequence (looked up): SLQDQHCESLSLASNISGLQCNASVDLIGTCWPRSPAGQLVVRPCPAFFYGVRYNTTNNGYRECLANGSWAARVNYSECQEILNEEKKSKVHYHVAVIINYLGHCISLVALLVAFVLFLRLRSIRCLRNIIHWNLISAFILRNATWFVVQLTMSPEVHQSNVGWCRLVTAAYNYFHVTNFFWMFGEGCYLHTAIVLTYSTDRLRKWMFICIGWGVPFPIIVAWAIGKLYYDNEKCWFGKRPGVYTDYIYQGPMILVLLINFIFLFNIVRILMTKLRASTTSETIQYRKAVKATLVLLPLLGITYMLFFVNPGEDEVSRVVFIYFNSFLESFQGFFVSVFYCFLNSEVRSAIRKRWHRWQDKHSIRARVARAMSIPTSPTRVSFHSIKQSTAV

[5] = molecular target: T1, human CRH receptor type 2; assay: cell-based or functional assay; remark: listed apart in the source
[6] = molecular target: T3, human CRH receptor type 1 (human), P34998; assay: radioligand competition, [125I]-(Tyr0)-sauvagine, CRHR1 membrane assay; details: remark: other sources report otherwise
T3 chain: T2 sequence (looked up)

[7] = molecular target: T1, human CRH receptor type 2; assay: radioligand competition, [125I]-anti-sauvagine-30, membranes of h-CRHR2 SK-N-MC cells
[8] = molecular target: T1, human CRH receptor type 2; assay: radioligand competition, [125I]-anti-sauvagine-30, membranes of h-CRHR2 SK-N-MC cells; biphasic curve
[9] = molecular target: T2, human CRH receptor type 1; assay: radioligand competition, [125I]-(Tyr0)-sauvagine, CRHR1 membrane assay
Protocol: Frozen cell pellets were defrosted on ice in 15 ml of assay buffer that was composed of 10 mM HEPES, 130 mM NaCl, 4.7 mM KCl, 5 mM MgCl₂, and 0.089 mM bacitracin at pH 7.2 and 21±3° Celsius. The solution was then homogenized with a Polytron tissue grinder at a setting of 10 and 7×3s (Brinkmann Instruments, Westbury, N.Y.). The homogenate was centrifuged at 4° Celsius at 800×g for 5 min with the pellet being discarded. The supernatant was re-centrifuged at 26,892×g for 25 min at 4° Celsius with the final pellet being re-suspended in assay buffer. All binding assays were conducted in 96-well Multiscreen GF/B filter plates (Millipore, Billericay, Mass., U.S.A.) that were pre-soaked in assay buffer with 0.3% PEI for 1 hour. […] The bound radioactivity was separated by filtration using a Multiscreen Resist manifold (Millipore Corp., Billerica, Mass., U.S.A). The filters were washed three times with ice-cold PBS at pH 7.5 and radioactivity retained on the filters was quantified by its liquid scintillation measured by a TopCount counter (Packard BioScience, Boston, Mass., U.S.A). All experiments were performed in triplicate.
Data from individual competition curves were expressed as the percentage of specific [¹²⁵I]-anti-sauvagine-30 or)[¹²⁵I]-(Tyr⁰-sauvagine binding (B) within each experiment.

[10] = molecular target: T1, human CRH receptor type 2; assay: cell-based or functional assay; remark: listed apart in the source

Binder: TLSLDVPTNIMNLLFNIAKAKNLRAQAAANAHLMAQI-NH2 [CRHR2 peptide agonist with shortened amino acid sequence, 37aa, SEQ ID NO: 108]
- pA50, cAMP [1]: 8.49 -log M
- αmax, cAMP [1]: 106 % of the maximum response to h-SCP

Binder: KFTLSLDVPTNIMNLLFNIAKAKNLRAQAAANAHLMAQI-NH2 [CRHR2 peptide agonist with shortened amino acid sequence, 39aa, SEQ ID NO: 107]
- pA50, cAMP [1]: 9.25 -log M
- αmax, cAMP [1]: 111 % of the maximum response to h-SCP

Binder: SLDVPTNIMNLLFNIAKAKNLRAQAAANAHLMAQI-NH2 [CRHR2 peptide agonist with shortened amino acid sequence, 35aa, SEQ ID NO: 110]
- KA (receptor affinity, in µM) [2]: > 10 µM

Binder: TKFTLSLDVPTNIMNLLFNIAKAKNLRAQAAANAHLMAQI-OH [non-amidated h-SCP]
- pA50, cAMP [1]: 7.1 -log M
- αmax, cAMP [1]: 107 % of the maximum response to h-SCP
- potency against amidated h-SCP, cAMP [3]: ~200 fold less potent

Binder: FTLSLDVPTNIMNLLFNIAKAKNLRAQAAANAHLMAQI-NH2 [human Urocortin III]
- pA50, cAMP [4]: < 5 -log M
- pA50, cAMP [5]: 9.26 -log M
- αmax, cAMP [5]: 102
- pKI [6]: 4.96 -log M
- pKI [7]: 6.49 -log M

Binder: TKFTLSLDVPTNIMNLLFNIAKAKNLRAQAAANAHLMAQI-NH2 (40 amino acids; also called h-SCP) [Human stresscopin with amidated C-terminus]
- pA50, cAMP [4]: < 5 -log M
- pIC50 (low affinity state) [8]: 6.6 -log M
- A50, cAMP [5]: 0.4 nM
- control pA50, cAMP [5]: 9.47 to 9.74 -log M
- pA50, cAMP [5]: 9.4 -log M
- pA50, cAMP (one batch) [5]: 9.41 -log M
- αmax, cAMP (% of the maximum response to h-SCP) [5]: 98.7
- αmax, cAMP ([5]; scale: % of the maximum response obtained to h-SCP): 100
- pKI [9]: 4.6 -log M
- pKI [7]: 5.71 -log M

Binder: DDPPLSIDLTFHLLRTLLELARTQSQRERAEQNRIIFDSV-NH2 [r-UCN1]
- pA50, cAMP [4]: 9.19 -log M
- pA50, cAMP [10]: 9.08 -log M
- αmax, cAMP [10]: 110
- pKI [7]: 8.51 -log M

Binder: LDVPTNIMNLLFNIAKAKNLRAQAAANAHLMAQI-NH2 [CRHR2 peptide agonist with shortened amino acid sequence, 34aa, SEQ ID NO: 111]
- KA (receptor affinity, in µM) [2]: > 10 µM

B1: anti-sauvagine-30 (peptide)
peptide: FHLLRKMIEIEKQEKEKQQAANNRLLLDTI-NH2
notes: selective CRHR2 antagonist; also called SV30; CRHR antagonist peptide
- pA2 against h-SCP, cAMP [5]: 7.82 -log M
- pKI [9]: 5.81 -log M
- pKI [7]: 7.78 -log M

Binder: DVPTNIMNLLFNIAKAKNLRAQAAANAHLMAQI-NH2 [CRHR2 peptide agonist with shortened amino acid sequence, 33aa, SEQ ID NO: 112]
- KA (receptor affinity, in µM) [2]: > 10 µM
